Test results published in the RNAGym collection of RNA variant scans (doi:10.1073/pnas.2313332121).

B1: TPR t1 (parent)
chain: GACCAAUCUGCCCUCAGAGCUCGAGAACAUCUUCGGAUGCAGAGGAGGCAGGCUUCGGUGGCGCGAUAGCGCCAACGUCCUCAACCUCCAAUGCAUCCCACCACAUGAUGAUGCCUGAAGAGCCUUGGUUUUUUG

Variants of: B1
Test: polymerase ribozyme fitness, log enrichment relative to wild type (log ratio); higher = more active; in vitro selection for triplet polymerase activity
Method in brief: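 Each subunit of a heterodimeric triplet polymerase ribozyme was represented by a PCR-built, transcribed mutant library that underwent triplicate single-round in vitro selection with frozen incubation at −7 °C. Extended constructs were recovered by gel excision, streptavidin-bead capture and RT-PCR, and Illumina sequencing of input and output libraries kept genotypes with ≥10 input reads and ≥1 read per output. Fitness is the logarithm of genotype enrichment relative to wild-type enrichment, from inverse-variance-weighted replicate averages, with a logarithm base of 2.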

Variant	polymerase ribozyme fitness (log ratio)
GACCAAUCUGCCCUCAGAGCUCGAGAACAUCUUCGGUUGCAGAGGAGGCAGGCUUCGGUGGCGCGAUAGCGCCAACGUCCUCAACCUCCAAUGCAGCCCACCACAUGAUGAUGCCUGAAGAGCCUUGGUUUUUUG [A37U U96G]	-0.312
GACCAAUCUGCCCUCAGAGCUCGAGAACAUCUUCGGUUGCAGAGGAGGCAGGCUUCGGUGUCGCGAUAGCGCCAACGUCCUCAACCUCCAAUGCAUCCCACCACAUGAUGAUGCCUGAACAGCCUUGGUUUUUUG [A37U G61U G120C]	0.718
GACCAAUCUGCCCUCAGAGCUCGAGAACAUCUUCGGUUGCAGAGGAGGCAGGCUUCGGUGGCGCGAUAGCGCCAACGUCCUCAACCUCCAAUGCAUCCUACCACAUGAUGAUGCCUGAAGAGCCUUGGUUUUUUG [A37U C99U]	-2.37
GACCAAUCUGCCCUCAGAGCUCGAGAACAUCUUCGGUUGCAGAGGAGACAGGCUUCGGUGCCGCGAUAGCGCCAACGUCCUCAACCUCCAAUGCAUCCCACCACAUGAUGAUGCCAGAAGAGCCUUGGUUUUUUG [A37U G48A G61C U116A]	-4.18
GACCAAUCUGCCCUCAGAGCUCGAGAACAUCUUCGGAAGCAGAGGAGGCAGGCUUCGGUGUCGCGAUAGCGCCAACGUCCUCAACCUCCAAUGCAUCCCACCACAUGAUGAUGCCUGAAGAGCCUUGGUUUUUUG [U38A G61U]	-0.881
GACCAAUCUGCCCUCAGAGCUCGAGAACAUCUUCGGAAGCAGAGGAGGCAGGCUUCGGUGGCGCGAUAGCGCCAACGUCCUCAACCUCCAAUGCAUCCCACCACAUGAUGUUGCCUGAAGAGCCUUGGUUUUUUG [U38A A111U]	-4.52
GACCAAUCUGCCCUCAGAGCUCGAGAACAUCUUCGGUUGCAGAGGAGGCAGUCUUCGGUGGCGCGAUACCGCCAACGUCCUCAACCUCCAAUGCAUCCCACCACAUGAUGAUGCCUGAAGAGCCUUGGUUUUUUG [A37U G52U G69C]	-2.07
GACCAAUCUGCCCUCAGAGCUCGAGAACAUCUUCGGUUACAGAGGAGGCAGGCUUCGGUGGCGCGAUAGCGCCAACGUCCUCAACCUCCAAUGCAUCCCACCACAUGAUGAUGCCUGAAGAGCCUUGGUUUUUUG [A37U G39A]	-1.34
GACCAAUCUGCCCUCAGAGCUCGAGAACAUCUUCGGACGCAGUGGAGGCAGGCUUCGGUGGCGCGAUAGCGCCAACGUCCUCAACCUCCAAUGCAUCCCACCACAUGAUGAUGCCUGAAGAGCCUUGGUUUUUUG [U38C A43U]	-2.21
GACCAAUCUGCCCUCAGAGCUCGAGAACAUCUUCGGUUGCAGAGGAGGCAGACUUCGGUGACGCGAUAGCGCCAACGUCCUCAACCUCCAAUGCAUCCCACCACGUGAUGAUGCCUGAAGAGCCUUCGUUUUUUG [A37U G52A G61A A105G G127C]	-4.21
GACCAAUCUGCCCUCAGAGCUCGAGAACAUCUUCGGACGUAGAGGUGGCAGGCUACGGUGGCGCGAUAGCGCUAACGUCCUCAACCUCCAAUGCAUCCCACCACAUGAUGAUGCCUGAAGAGCCUUGGUUUUUUG [U38C C40U A46U U55A C73U]	-3.3
GACCAAUCUGCCCUCAGAGCUCGAGAACAUCUUCGGUUGCAGAGGAGGCAGGCUUCGGUGGCGCGAUAGCGCCAACGUCCUCAACCUCCAAUGCAUCCCACCACAUGAUGAAGCCUGAAGAGCCUUGGUUUUUUG [A37U U112A]	0.71
GACCAAUCUGCCCUCAGAGCUCGAGAACAUCUUCGGACGCAGAGGAGGCAGGGUUCGGAGGCGCGAUAGCGCCAACGUCCUCAACCUCCAAUGCAUCCCACCACAAGAUGAUGCCUGAAGAGCCUUGGUUUUUUG [U38C C53G U59A U106A]	-0.127
GACCAAUCUGCCCUCAGAGCUCGAGAACAUCUUCGGUUGCAGAGGAGGCAGGCUUCGGUGGCGCGAUAACGCCAACGUCCUCAACCUCCAAUGCAUCCCACCACAUGAUGAUGCCUGAAGAGCCUUGGUUUUUUG [A37U G69A]	-3.01
GACCAAUCUGCCCUCAGAGCUCGAGAACAUCUUCGGAAGCAGAGGAGGCAGGCUUCGGUGGCGCGAUAGCGCCAUCGUCCUUCACCUGCAAUGCAUCCCACCACAUGAUGACGCCUGAAGAACCUUGGUUUUUUG [U38A A75U C82U A83C C88G U112C G122A]	-2.99
GACCAAUCUGCCCUCAGAGCUCGAGAACAUCUUCGGUUGCAGACGAGGCAGGGUCCGGUGACGCGAUAGCGCCAACGUCCUCAACCUCUAAUGCAUCCCACCACAUGAUGAUGCCUCAAGAGCCUUGGUUUUUUG [A37U G44C C53G U55C G61A C89U G117C]	-4.88
GACCAAUCUGCCCUCAGAGCUCGAGAACAUCUUCGGUUGCAGAGGAGACAGGCUUCGGUGCCGCGAUAGCGCCAACGUCCUCAACCUCCAAUGCAUCCCACCACUUGAUGUUGCCUGAAGAGCCUUGGUUUUUUG [A37U G48A G61C A105U A111U]	-6.69
GACCAAUCUGCCCUCAGAGCUCGAGAACAUCUUCGGUUGCAGAGGAGGCAGGCUUCGGUGUCGCGAUAGCGCCAACGUCCUCGACCUACAAUGCAUCCCACCACAUGAUGAUGCCUGAAGAGCCUUGGUUUUUUG [A37U G61U A83G C88A]	-2.28
GACCAAUCUGCCCUCAGAGCUCGAGAACAUCUUCGGUUGCAGAGGAGGCAGGCUUCGGUAGCGCGAUAGCGCCAACGUCCUCAACCUCCAAUGCAUCCCAUCACAUGAUGAUGCCUGAAGAGCCUUGGUUUUUUG [A37U G60A C101U]	-0.477
GACCAAUCUGCCCUCAGAGCUCGAGAACAUCUUCGGUUGCAGAGGAGGCAGGCUUCGGUGGCGCGAUAUCGCCAACGUCCUCAACCUCCAAUGCAUCCCACCACAUGAUGAUGCCUGAAGAGCCCUGGUUUUUUG [A37U G69U U125C]	-3.4
GACCAAUCUGCCCUCAGAGCUCGAGAACAUCUUCGGUUGCAGAGGAGGCAGGCUUCGGUCGUGCGAUAGCGCCAACGUCCUCAACCUCCAAUGCAUCCCACCACAUGAUGAUGCCUGAAGAGCCUUGGUUUUUUG [A37U G60C C62U]	-2.01

Variant	polymerase ribozyme fitness (log ratio)
GACCAAUCUGCCCUCAGAGCUCGAGAACAUCUUCGGUUGCAGAAGAGGCAGGCUUCGGUGGCGCGAUAGCGCCAACGUCCUCAACCUCCAAUGCAUCCCACCACAUGAUGAUGCCUGAAGAGCCUUGGUUUUUUG [A37U G44A]	-2.19
GACCAAUCUGCCCUCAGAGCUCGAGAACAUCUUCGGUUGCAGAGGAGGCAUGCUUCGGUCGCGCGAUAGCGCCAACGUCCUCAAUCUCCAAUGCAACCCACCACAUGAUGAUACCUGAAGAGCCUUGGUUUUUUG [A37U G51U G60C C85U U96A G113A]	-4.21
GACCAAUCUGCCCUCAGAGCUCGAGAACAUCUUCGGAAGCAGAGGAGGCAGGCUUCGGUGGCGCGAUAGCGCCAACGUCCUCAACCUCGAAUGCAUCCCACCACAUGAUGAUGACUGAAGAGACUUGGUUGUUUG [U38A C89G C114A C123A U131G]	-4.1
GACCAAUCUGCCCUCAGAGCUCGAGAACAUCUUCGGAAGCAGAGGAGGCAGGCUUCGGUGGCGCGAUAGCGCCAACGUCCUCAACCUCCAAUGCAGCCCACCACAUGAUGAAGCCUGAAGAGCCUUGAUUUUUUG [U38A U96G U112A G128A]	-2.89
GACCAAUCUGCCCUCAGAGCUCGAGAACAUCUUCGGAAGCAGAGGAGGCAGGCUUCGGUGGCGCGAUAGCGCCAACGUCCUCAACCUCCAAUGCAUCCCACCACAUGAUGAUGCCUGAAAAGCCUUGGUUUUUUG [U38A G120A]	-0.255
GACCAAUCUGCCCUCAGAGCUCGAGAACAUCUUCGGUUGCAGAGGAGGCAGGCUUCGGUGGCGCGAUAGCGCCAACGUCCUCAACCUCCAAUGCAUCCCACCAUAUGAUGAUGCCCGAAGAGCCUUGGUUUUUUG [A37U C104U U116C]	-0.911
GACCAAUCUGCCCUCAGAGCUCGAGAACAUCUUCGGUUGCAGAGGAGGCAGACUUAGGUGGCGCGAUAGCGCCAACGUCCUCAACCUCCAAUGCAUCCCACCACAUGAUCAUGCCUGUAGAGCCUUGGUUUUUUG [A37U G52A C56A G110C A118U]	-5.47
GACCAAUCUGCCCUCAGAGCUCGAGAACAUCUUCGGUUGCAGAGGAGGCAGGCUUCGCUGGCGCGAUAGCGCCAUCGUCUUCAACCUCCAAUACAUACCACCACAUGAUGAUGCCUGAAGAGCCUUGGUUUUUUG [A37U G58C A75U C80U G93A C97A]	-6.83
GACCAAUCUGCCCUCAGAGCUCGAGAACAUCUUCGGUUGCAGAGGAGGCAGGCUUCGGUGGCGCGAUACCGCCAACGUCCUCAACCUCCAAUGCAUCCCACCACAUGAUGAAGCCUGAAGAGCCUUGUUUUUUUG [A37U G69C U112A G128U]	-4.19
GACCAAUCUGCCCUCAGAGCUCGAGAACAUCUUCGGUUGCAGAGGAGGCAGGCUUCGGUGGCGCGAUAGCGCCAACCUCCUCAACCUCCAAUGCAUCCCACCACAUGAUGAUGCCUGAAGAGCCUUGGUUUUUUG [A37U G77C]	-1.31
GACCAAUCUGCCCUCAGAGCUCGAGAACAUCUUCGGUUGCAGAGGAGGCAGGCUGCGGUGGCGCGAUAGCGCCAACGUCCUCAACCUCCAAUGCAUCCCACCACAUGAUGAUGCCUGAAGAGCCUUGGUUUUUUG [A37U U55G]	-0.465
GACCAAUCUGCCCUCAGAGCUCGAGAACAUCUUCGGUUGCAGAGGAGGCAGGCUUCGGUGGCGCGAUAGCGCCAACGUCCUCAACCUCCAAUGCAUCCCACCACAUGAUGAUGCCUGAAAAGCCUUGGUUUUUUG [A37U G120A]	1.2
GACCAAUCUGCCCUCAGAGCUCGAGAACAUCUUCGGAAGCAGAGGAGGCAGGCUUCGGUGGCUCGAUAGCGCCAACGUCCUCAACCUCCAAUGCAUCCCACCACAUGAUGAUGCCUGAAGAGCCUUGGUUAUUUG [U38A G63U U131A]	-2.72
GACCAAUCUGCCCUCAGAGCUCGAGAACAUCUUCGGUUGCAGAGGAGGCAUGCUUCGGUGGCGCGAUAGCGCCAACAUCCUCAACCUCCAUUGCAUCCCACCACAUGAUGAUGCCUGAAGAGCCUUGGUUUUUUG [A37U G51U G77A A91U]	-6.95
GACCAAUCUGCCCUCAGAGCUCGAGAACAUCUUCGGUUGCAGAGGAGGCAGGCUUCGGUGGCGCGAUAGCGCCAACGUCCUCAACCUCCAAUGCAUCCCACCACACGAUGAUGCCUGAAGAGCCUUGGUUUUUUG [A37U U106C]	-0.686
GACCAAUCUGCCCUCAGAGCUCGAGAACAUCUUCGGACGCAGAGGAGGCAGGCUUCGGUGGCGAGAUAGCGCCAACGUCCUCAACCUCCAAUGCAUCCCACCACAUGAUGAUGCCUGAAGAGCCUUGGUUUUUUG [U38C C64A]	-6.78
GACCAAUCUGCCCUCAGAGCUCGAGAACAUCUUCGGAAGCAGAGGAGGCAGGCUUCGGUGGCGCGAUAGCGCCAACGUCCUCAACCUCCAAUGCAUCCCAUCACAUGAUGAUGCCUCAAGAGCCUUGGUUUUUUG [U38A C101U G117C]	-4.18
GACCAAUCUGCCCUCAGAGCUCGAGAACAUCUUCGGAAGCAGAGGAGGCAGGCUUCGGUGGCGCGAUAGCGCGAACGUCCUCAACCUCCAAUGCAUCCCAACACAUGAUGAUGCCUGAUGUUCCUUGGUUUUUUG [U38A C73G C101A A119U A121U G122U]	-2.99
GACCAAUCUGCCCUCAGAGCUCGAGAACAUCUUCGGUUGCAGAGGAAGCAGGCUUCGGUGGCGCGAUGGCGCCAACGUCAUCAACCUCCAAUGCAUCCCACCACAUGAUGAUGCCUGAAGAGCCUUGGUUUUUUG [A37U G47A A68G C80A]	-6.59
GACCAAUCUGCCCUCAGAGCUCGAGAACAUCUUCGGUUGCAGAGGAGGCAGGCUUCGGUGGCGCGAUAACGCCAACAUCCUCAACCUCCUAUGCAUCCCACCACAUGAUGAUGCCUGAAGAGUCUUGGUUUUUUG [A37U G69A G77A A90U C123U]	-5.05
GACCAAUCUGCCCUCAGAGCUCGAGAACAUCUUCGGUUGCAGAGGAUGCAGGCUGCGGUGGCGCGAUAGCGCCAACGUCCUCAACCUCCAAUGCAUCCCACCACAUGAUGAUGUCUGAAGAGCCUUGGUUUUUUG [A37U G47U U55G C114U]	-3.49
